The values below come from article PMC8008175 (The Journal of Biological Chemistry, 2021).

Assay [1] concerns the target Ubp6 UBL UBL (Saccharomyces cerevisiae) (UniProt P43593). Particulars: cited from earlier work.
The target in assay [2] is T1, Rpn1^391-642 (Saccharomyces cerevisiae, UniProt P38764 391-642).
T1 construct: Used unlabeled, and ^15N-enriched for the titration with Ubp6-UBL; source: E. coli, purified
T1 sequence (looked up): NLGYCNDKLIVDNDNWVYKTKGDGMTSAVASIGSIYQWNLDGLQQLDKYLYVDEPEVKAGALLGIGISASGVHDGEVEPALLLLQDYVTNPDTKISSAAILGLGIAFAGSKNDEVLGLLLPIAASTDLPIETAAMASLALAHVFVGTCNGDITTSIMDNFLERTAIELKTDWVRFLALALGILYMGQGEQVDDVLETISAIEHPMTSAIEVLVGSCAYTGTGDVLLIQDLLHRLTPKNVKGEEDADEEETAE
Nature of the assay: NMR titration; unlabeled Ubp6-UBL titrated into ^15N-Rpn1^391-642 or ^15N-Rpn1^391-642(AKAA); CSPs fitted to a single-site binding model, Kd as a global parameter; 50 mM HEPES, 50 mM KCl, 1 mM TCEP, pH 7.6; 21-25 °C. To be noted: both partners purified.

For the next assay, the target named is T2, Rpn1^391-642(AKAA) (Saccharomyces cerevisiae, UniProt P38764 391-642, L430A | D431K | Q434A | Q435A).
T2 construct: ^15N-enriched in the titration; source: E. coli, purified
T2 sequence (looked up): T1 sequence (looked up) with L40A, D41K, Q44A, Q45A
The assay is described as above. Particulars: both partners purified.

In assay [3] the target is T3, Rpn1^356-905 (Saccharomyces cerevisiae, UniProt P38764 356-905).
T3 construct: also called PC repeat region construct; source: E. coli, purified
T3 sequence (looked up): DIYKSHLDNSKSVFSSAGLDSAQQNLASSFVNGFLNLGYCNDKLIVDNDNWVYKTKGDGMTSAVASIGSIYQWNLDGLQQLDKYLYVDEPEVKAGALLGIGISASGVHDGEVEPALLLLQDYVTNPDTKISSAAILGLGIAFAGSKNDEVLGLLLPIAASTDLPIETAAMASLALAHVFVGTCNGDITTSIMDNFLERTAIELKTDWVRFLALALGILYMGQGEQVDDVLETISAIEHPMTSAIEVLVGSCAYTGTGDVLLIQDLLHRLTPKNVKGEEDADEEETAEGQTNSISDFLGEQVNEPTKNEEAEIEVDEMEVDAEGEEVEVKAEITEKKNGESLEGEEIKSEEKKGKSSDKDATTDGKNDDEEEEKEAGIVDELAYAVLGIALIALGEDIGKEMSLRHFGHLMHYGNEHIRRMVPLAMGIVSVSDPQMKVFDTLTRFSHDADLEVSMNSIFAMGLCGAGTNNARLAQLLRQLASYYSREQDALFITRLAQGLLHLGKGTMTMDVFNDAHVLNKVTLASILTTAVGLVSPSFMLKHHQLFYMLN
Nature of the assay: NMR titration; ^1H-^15N spectra of ^15N-UBL with unlabeled Rpn1^356-905; 50 mM Tris-Cl, 200 mM KCl, 5% glycerol, 5 mM β-mercaptoethanol, pH 7.4; 21-25 °C. To be noted: both partners purified.

Assay [4] has as its target T1, Rpn1^391-642. Nature of the assay: NMR titration; ^1H-^15N spectra, CSPs and ^15N R2 of 150 μM ^15N-UBL or ^15N-^dK48-Ub2 with unlabeled Rpn1^391-642; 50 mM HEPES, 50 mM KCl, 1 mM TCEP, pH 7.6; 21-25 °C. To be noted: both partners purified.
Assay [5] addresses T4, full-length Rpn1 (Saccharomyces cerevisiae, UniProt P38764 1-993).
T4 construct: Rpn1, proteasomal subunit, Saccharomyces cerevisiae, UniProt P38764, full length; Unlabeled in the NMR experiments; also called Rpn1^FL; source: E. coli, purified
T4 sequence (looked up): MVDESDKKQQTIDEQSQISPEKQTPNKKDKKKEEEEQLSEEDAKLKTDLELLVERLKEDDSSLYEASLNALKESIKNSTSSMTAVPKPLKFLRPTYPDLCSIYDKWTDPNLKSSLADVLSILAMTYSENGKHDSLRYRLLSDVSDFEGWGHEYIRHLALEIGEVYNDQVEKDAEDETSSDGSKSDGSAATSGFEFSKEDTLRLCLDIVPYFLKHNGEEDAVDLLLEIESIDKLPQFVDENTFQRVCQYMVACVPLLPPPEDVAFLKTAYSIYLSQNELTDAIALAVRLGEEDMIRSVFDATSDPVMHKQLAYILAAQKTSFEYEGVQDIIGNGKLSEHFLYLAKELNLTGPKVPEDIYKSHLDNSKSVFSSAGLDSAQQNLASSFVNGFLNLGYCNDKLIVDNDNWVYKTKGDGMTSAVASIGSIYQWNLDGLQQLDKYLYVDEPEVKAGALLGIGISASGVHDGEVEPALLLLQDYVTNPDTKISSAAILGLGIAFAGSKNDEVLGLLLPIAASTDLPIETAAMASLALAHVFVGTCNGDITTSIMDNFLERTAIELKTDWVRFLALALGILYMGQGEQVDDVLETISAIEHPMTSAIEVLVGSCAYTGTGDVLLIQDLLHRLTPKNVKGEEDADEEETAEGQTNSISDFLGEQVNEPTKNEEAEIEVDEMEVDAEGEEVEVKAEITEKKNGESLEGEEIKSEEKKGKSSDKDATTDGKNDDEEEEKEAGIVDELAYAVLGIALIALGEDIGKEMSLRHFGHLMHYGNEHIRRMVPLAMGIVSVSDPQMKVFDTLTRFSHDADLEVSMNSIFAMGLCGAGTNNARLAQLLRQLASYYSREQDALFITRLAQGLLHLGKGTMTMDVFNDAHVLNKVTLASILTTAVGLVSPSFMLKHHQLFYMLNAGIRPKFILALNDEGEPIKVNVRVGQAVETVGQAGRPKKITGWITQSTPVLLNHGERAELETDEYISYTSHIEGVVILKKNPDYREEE
The assay is described as follows: NMR titration; competition: 150 μM ^15N-UBL with 1× Rpn10-UIM, then 0.3× Rpn1^FL (48 μM), then 2× or 3× Rpn10-UIM. To be noted: both partners purified.

In the next assay the target is T5, Rpn10-UIM (Saccharomyces cerevisiae, UniProt P38886 204-268, Q261Y).
T5 construct: Rpn10, Saccharomyces cerevisiae, UniProt P38886, residues 204-268 with a Q261Y mutation for quantification purposes; also called UIM domain of Rpn10; source: E. coli, purified
T5 sequence (looked up): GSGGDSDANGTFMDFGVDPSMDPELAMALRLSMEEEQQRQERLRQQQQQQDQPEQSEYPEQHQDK
Nature of the assay: NMR titration; ^1H-^15N spectra of 150 μM ^15N-UBL with 1× Rpn10-UIM; signal shifts. To be noted: both partners purified.

In assay [6] the target is T4, full-length Rpn1. The assay is described as follows: NMR titration; ^1H-^15N spectra of the ^15N-enriched protein or UBL domain with unlabeled Rpn1^FL (equimolar; excess for Ddi1); signal attenuation; 20 mM sodium phosphate, 150 mM NaCl, 1 mM TCEP, pH 6.8; 21-25 °C. To be noted: both partners purified.
Assay [7] addresses T3, Rpn1^356-905. Nature of the assay: NMR titration; competition: equimolar ^15N-UBL and Rpn1^356-905 with unlabeled competitor added stepwise (molar ratios 1 and 4); 50 mM Tris-Cl, 200 mM KCl, 5% glycerol, 5 mM β-mercaptoethanol, pH 7.4; 21-25 °C. To be noted: both partners purified.

Numbering of substitutions follows the chain as printed.

Rpn1 391-642 (from UniProt P38764): the dissociation constant Kd – broadly, a measure of binding affinity in units of concentration – in assay [1] was 40 µM.

B1: Ubp6-UBL (domain or fragment, Saccharomyces cerevisiae, UniProt P43593 2-81, looked up)
chain: SGETFEFNIRHSGKVYPITLSTDATSADLKSKAEELTQVPSARQKYMVKGGLSGEESIKIYPLIKPGSTVMLLGTPDANL
notes: Ubp6, Saccharomyces cerevisiae, UniProt P43593, UBL domain, residues 2-81; Used ^15N-enriched or unlabeled; also called UBL domain of Ubp6; source: E. coli, purified
On to B1, for which the Kd with Rpn1^391-642 [2] is 43 ± 22 µM; in the assay with Rpn1^391-642(AKAA) it was 36 ± 21 µM.

B2: Dsk2-UBL (domain or fragment, Saccharomyces cerevisiae)
chain: SLNIHIKSGQDKWEVNVAPESTVLQFKEAINKANGIPVANQRLIYSGKILKDDQTVESYHIQDGHSVHLVKSQPKPLDLQPSLIS
notes: Dsk2, Saccharomyces cerevisiae, UniProt P48510, UBL domain, residues 2-77; also called UBL domain of Dsk2; source: E. coli, purified
For the molecule B2, the binding result with Rpn1^356-905 [3], with Rpn1^391-642 [4], with full-length Rpn1 [5] and in the assay with Rpn10-UIM was “binds” in each case.

B3: full-length Ubp6 (enzyme, Saccharomyces cerevisiae, UniProt P43593 1-499, looked up)
chain: MSGETFEFNIRHSGKVYPITLSTDATSADLKSKAEELTQVPSARQKYMVKGGLSGEESIKIYPLIKPGSTVMLLGTPDANLISKPAKKNNFIEDLAPEQQVQQFAQLPVGFKNMGNTCYLNATLQALYRVNDLRDMILNYNPSQGVSNSGAQDEEIHKQIVIEMKRCFENLQNKSFKSVLPIVLLNTLRKCYPQFAERDSQGGFYKQQDAEELFTQLFHSMSIVFGDKFSEDFRIQFKTTIKDTANDNDITVKENESDSKLQCHISGTTNFMRNGLLEGLNEKIEKRSDLTGANSIYSVEKKISRLPKFLTVQYVRFFWKRSTNKKSKILRKVVFPFQLDVADMLTPEYAAEKVKVRDELRKVEKEKNEKEREIKRRKFDPSSSENVMTPREQYETQVALNESEKDQWLEEYKKHFPPNLEKGENPSCVYNLIGVITHQGANSESGHYQAFIRDELDENKWYKFNDDKVSVVEKEKIESLAGGGESDSALILMYKGFGL
notes: Ubp6, deubiquitinase with a UBL domain, Saccharomyces cerevisiae, UniProt P43593, full length; source: E. coli, purified
As to B3, the binding result with full-length Rpn1 [6] is listed as “binds”.

B4: full-length Dsk2 (natural protein, Saccharomyces cerevisiae, UniProt P48510 1-373, looked up)
chain: MSLNIHIKSGQDKWEVNVAPESTVLQFKEAINKANGIPVANQRLIYSGKILKDDQTVESYHIQDGHSVHLVKSQPKPQTASAAGANNATATGAAAGTGATPNMSSGQSAGFNPLADLTSARYAGYLNMPSADMFGPDGGALNNDSNNQDELLRMMENPIFQSQMNEMLSNPQMLDFMIQSNPQLQAMGPQARQMLQSPMFRQMLTNPDMIRQSMQFARMMDPNAGMGSAGGAASAFPAPGGDAPEEGSNTNTTSSSNTGNNAGTNAGTNAGANTAANPFASLLNPALNPFANAGNAASTGMPAFDPALLASMFQPPVQASQAEDTRPPEERYEHQLRQLNDMGFFDFDRNVAALRRSGGSVQGALDSLLNGDV
notes: Dsk2, UBL-UBA shuttle protein, Saccharomyces cerevisiae, UniProt P48510, full length; ^15N-enriched; source: E. coli, purified
B4: in the assay with full-length Rpn1 [6], the binding result is on record as “binds”.

B5: Rad23-UBL (residues 1-73) (domain or fragment, Saccharomyces cerevisiae, UniProt P32628 1-73, looked up)
chain: MVSLTFKNFKKEKVPLDLEPSNTILETKTKLAQSISCEESQIKLIYSGKVLQDSKTVSECGLKDGDQVVFMVS
notes: ^15N-enriched; source: E. coli, purified
As to B5, the binding result with full-length Rpn1 [5] is given as “binds”.

B6: Rad23-UBL (residues 2-77) (domain or fragment, Saccharomyces cerevisiae, UniProt P32628 2-77, looked up)
chain: VSLTFKNFKKEKVPLDLEPSNTILETKTKLAQSISCEESQIKLIYSGKVLQDSKTVSECGLKDGDQVVFMVSQKKS
notes: Rad23, Saccharomyces cerevisiae, UniProt P32628, UBL domain, residues 2-77; also called UBL domain of Rad23; source: E. coli, purified
Consider B6, for which the binding result in the assay with Rpn1^356-905 [7], with full-length Rpn1 [6] and in the assay with Rpn1^391-642 [4] was “binds” throughout.

B7: full-length Rad23 (natural protein, Saccharomyces cerevisiae, UniProt P32628 1-398, looked up)
chain: MVSLTFKNFKKEKVPLDLEPSNTILETKTKLAQSISCEESQIKLIYSGKVLQDSKTVSECGLKDGDQVVFMVSQKKSTKTKVTEPPIAPESATTPGRENSTEASPSTDASAAPAATAPEGSQPQEEQTATTERTESASTPGFVVGTERNETIERIMEMGYQREEVERALRAAFNNPDRAVEYLLMGIPENLRQPEPQQQTAAAAEQPSTAATTAEQPAEDDLFAQAAQGGNASSGALGTTGGATDAAQGGPPGSIGLTVEDLLSLRQVVSGNPEALAPLLENISARYPQLREHIMANPEVFVSMLLEAVGDNMQDVMEGADDMVEGEDIEVTGEAAAAGLGQGEGEGSFQVDYTPEDDQAISRLCELGFERDLVIQVYFACDKNEEAAANILFSDHAD
notes: Rad23, UBL-UBA shuttle protein, Saccharomyces cerevisiae, UniProt P32628, full length; ^15N-enriched; source: E. coli, purified
In the case of B7, the binding result with full-length Rpn1 [6] is listed as “binds”.
